Results: PMC7005700

What was measured:
USF-1 = USF-1 (UniProt P22415); assay: co-immunoprecipitation, immunoblot; details: reference: wild type; sites T505
[1] = target: USF-1 overexpressed in 293FT cells (UniProt P22415)
[2] = target: USF-1 overexpressed in 293FT cells (UniProt P22415); remark: listed apart in the source

USF-1 overexpressed in 293FT cells, sequence (P22415 whole entry): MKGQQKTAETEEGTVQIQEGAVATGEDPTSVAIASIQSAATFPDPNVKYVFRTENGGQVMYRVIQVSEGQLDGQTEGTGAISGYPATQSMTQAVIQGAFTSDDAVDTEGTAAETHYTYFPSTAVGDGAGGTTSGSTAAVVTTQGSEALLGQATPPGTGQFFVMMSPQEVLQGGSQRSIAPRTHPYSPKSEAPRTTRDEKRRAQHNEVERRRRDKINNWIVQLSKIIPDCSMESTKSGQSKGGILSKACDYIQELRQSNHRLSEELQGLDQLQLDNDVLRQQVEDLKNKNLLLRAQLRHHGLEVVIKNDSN

JMJD1C (from UniProt Q15652) T505A
binding against the reference (USF-1): lost

JMJD1C T505D mutant, Q15652 1-2540
ChIP-qPCR enrichment at the FAS promoter (FAS promoter luc construct) upon insulin treatment [1]: 17 fold

WT JMJD1C, Q15652 1-2540
ChIP-qPCR enrichment at the FAS promoter (FAS promoter luc construct) upon insulin treatment [1]: 12 fold
FAS promoter (-444-FAS promoter-luciferase) activity in 293FT cells co-transfected with JMJD1C along with USF-1 [2]: 27 fold
